This test addresses T1, Hormad1 peptide on HLA-A*02:01 (human).
T1 peptide: YLDDLCVKI
Nature of the test: multimer staining.

B1: Hormad1 CTL A12 TCR (TRAV4*01 F, TRBV13*01 F) (TCR, V domains shown)
Valpha: LAKTTQPISMDSYEGQEVNITCSHNNIATNDYITWYQQFPSQGPRFIIQGYKTKVTNEVASLFIPADRKSSTLSLPRVSLSDTAVYYCLVGARGTALIFGKGTTLSVSS
Vbeta: AAGVIQSPRHLIKEKRETATLKCYPIPRHDTVYWYQQGPGQDPQFLISFYEKMQSDKGSIPDRFSAQQFSDYHSELNMSSLELGDSALYFCASSPTGQGSYEQYFGPGTRLTVT
In the case of B1, the binding result was “recognises”.

Source of the values: patent US20220409711A1 (published 2022).
